Measured values as given in patent US20120322725A1.
Read-outs that look alike come from different tables or passages of the source. PLA = 3-phenyllactic acid (2-hydroxy-3-phenylpropanoic acid)

Assays:
[1] = target: glucagon receptor (UniProt P47871); assay: cell-based or functional assay
[2] = target: glucagon receptor (UniProt P47871); assay: cell-based or functional assay; remark: listed apart in the source
[3] = target: GLP-1 receptor (UniProt P43220); assay: cell-based or functional assay
[4] = target: GLP-1 receptor (UniProt P43220); assay: cell-based or functional assay; remark: listed apart in the source
[5] = target: glucagon receptor, P47871; assay: receptor binding, method not described
Chain of glucagon receptor, P47871 (P47871 26-477 limits assumed): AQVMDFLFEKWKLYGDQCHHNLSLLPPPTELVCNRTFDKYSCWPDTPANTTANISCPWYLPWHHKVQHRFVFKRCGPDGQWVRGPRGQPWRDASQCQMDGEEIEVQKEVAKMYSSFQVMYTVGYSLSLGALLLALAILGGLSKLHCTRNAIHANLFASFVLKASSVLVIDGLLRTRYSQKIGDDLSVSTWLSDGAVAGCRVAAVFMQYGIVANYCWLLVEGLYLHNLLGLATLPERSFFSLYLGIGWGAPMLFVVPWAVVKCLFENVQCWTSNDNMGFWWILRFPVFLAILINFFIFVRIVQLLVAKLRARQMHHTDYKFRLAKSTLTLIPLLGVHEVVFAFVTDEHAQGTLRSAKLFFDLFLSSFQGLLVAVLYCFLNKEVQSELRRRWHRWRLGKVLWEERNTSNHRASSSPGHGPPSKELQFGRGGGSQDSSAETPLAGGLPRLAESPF

[6] = target: glucagon receptor, P47871; assay: cell-based or functional assay

Chain of GLP-1 receptor (P43220 24-463 limits assumed): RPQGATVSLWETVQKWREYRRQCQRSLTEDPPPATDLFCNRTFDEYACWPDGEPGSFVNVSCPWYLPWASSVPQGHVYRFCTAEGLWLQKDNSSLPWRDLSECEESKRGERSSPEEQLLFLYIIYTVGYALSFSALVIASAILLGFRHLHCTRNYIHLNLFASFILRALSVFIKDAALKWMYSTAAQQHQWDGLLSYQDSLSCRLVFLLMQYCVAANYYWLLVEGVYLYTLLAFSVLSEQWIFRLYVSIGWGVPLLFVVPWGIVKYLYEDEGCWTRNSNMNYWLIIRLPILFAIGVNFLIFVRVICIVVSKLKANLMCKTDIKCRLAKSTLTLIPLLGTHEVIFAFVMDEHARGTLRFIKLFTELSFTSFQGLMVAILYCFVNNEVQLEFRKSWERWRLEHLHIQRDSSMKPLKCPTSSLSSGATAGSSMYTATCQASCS
Chain of glucagon receptor (P47871 26-477 limits assumed): as the sequence (P47871 26-477 limits assumed) above

## FTSEYSKYLDERRAQDFVQWLMNTGPSSGAPPPS [Glucagon (6-CEX) analog E9, K12, E16]
[1]
  Glucagon IC50: 0.762 µM
[2]
  Glu IC50: 0.762 µM

## FTSEYSKYLDERRAKDFVQWLMNTGPSSGAPPPS (lactam between E16 and K20 (glucagon numbering)) [Glucagon (6-CEX) analog E9, E16K20 (lactam)]
[1]
  Glucagon IC50: 0.042 µM
[3]
  GLP-1 (EC50): 0.036 µM
[2]
  Glu IC50: 0.042 µM

## FTSEYSKYLDERRAQDFVQWLMNTGPSSGAPPPS (lactam between K12 and E16 (glucagon numbering)) [Glucagon (6-CEX) analog E9, K12E16 (lactam)]
[1]
  Glucagon IC50: 2.01 µM
[3]
  GLP-1 (EC50): 0.063 µM
[2]
  Glu IC50: 2.01 µM

## FTSDYSKYLDERRAQDFVQWLMNTGPSSGAPPPS (lactam between K12 and E16 (glucagon numbering)) [Glucagon (6-CEX) analog D9, K12E16 (Lactam)]
[4]
  GLP-1 (EC50): 0.018 µM
[1]
  Glucagon IC50: 0.828 µM
[3]
  GLP-1 (EC50): 0.119 µM
[2]
  Glu IC50: 0.828 µM

## {PLA}-TSEYSKYLDSRRAQDFVQWLMNTGPSSGAPPPS-NH2 [[PLA6, E9]Glucagon (aa6-29 + CEX)-NH2]
[5]
  IC50: 0.0403 µM
[6]
  IC50(nM) (cAMP, inhibit Glucagon) 0.1 nM or 0.2 nM: 24.8 nM

B1: [PLA6, E9, K12E16 (Lactam)] glucagon (6-CEX) analog (peptide)
peptide: TSEYSKYLDERRAQDFVQWLMNTGPSSGAPPPS
modifications: PLA at position 6, N-terminal to the letters given; lactam between K12 and E16 (glucagon numbering)
[1]
  Glucagon IC50: 0.072 µM
[3]
  GLP-1 (EC50): 0.006 µM
[2]
  Glu IC50: 0.072 µM
